Results: article PMC10644971 (Bioconjugate chemistry, 2023)

Legend:
[1] = biological target: dfTAT-ST (2) (HIV); assay: covalent SnoopTag/SnoopCatcher ligation followed by SDS-PAGE (in-gel fluorescence, Coomassie) and MALDI-TOF mass spectrometry; SC (40 μM) reacted with 2 (10 μM), or SC (80 μM) with 3 (10 μM), for 1 hour in TBS (20 mM Tris, 150 mM NaCl, pH 7.4); covalent isopeptide bond; products purified by cation exchange chromatography
[2] = biological target: 3 (disulfide-linked dimer of fTAT-ST) (HIV); assay: as above
[3] = ref Erazo-Oliveras et al., Nat Methods 2014, 11, 861-867; cited from earlier work
[4] = ref Erazo-Oliveras et al., Cell Chem Biol 2016, 23, 598-607; cited from earlier work

Row | Substance | stoichiometry N [1] [copies] | stoichiometry N [2] [copies] | endosomal escape of the monomeric form [3] | leakage of liposomes mimicking the lipid composition of late endosomes [4]
1 | SnoopCatcher (SC) (designed binder) | 1 | 2 | – | –
2 | CK(TMR)RKKRRQRRR [fTAT, reference compound] | – | – | does not mediate detectable endosomal escape | does not cause leakage
